Measurements: US20170002075A1 (AbbVie / Abbott, published 2017)

B1: 4E5-recombinant (antibody, V domains shown)
VH: QVQLQQSGAELVRPGTSVKVSCKASGYAFNNYLIEWIKQRPGQGLEWIGVINPGSGGTNHNEKFKVKATLTADKSSSTAYIQLSSLTSDDSAVYFCARSAGTARARFAYWGQGTLVTVSA
VL: DIQMTQSPSSLSASLGERVSLTCRASQDIGSSLNWLQQEPDGTIKRLIYATSSLDSGVPKRFSGSRSGSDYSLTISSLESEDFVDYYCLQYASFPFTFGSGTKLEIKR
notes: also called recombinant chimeric anti-human RAGE monoclonal antibody 4E5 (human IgG1/kappa)
B2: C-terminal shortened husRAGE fusion protein (1-130-sRAGE-Fc) (Fc fusion)
chain: AQNITARIGEPLVLKCKGAPKKPPQRLEWKLNTGRTEAWKVLSPQGGGPWDSVARVLPNGSLFLPAVGIQDEGIFRCQAMNRNGKETKSNYRVRVYQIPGKPEIVDSA
notes: also called husRAGE-1-130-Fc; RAGE-Fc mutant protein consisting of the v-domain only; not shown: C-terminal part of a human IgG heavy chain ('hIgG lambda hc 257-Stop')

Key:
[1] = biological target: T1, recombinant human RAGE (plate coat of the competition ELISA of Example 1.4); test: competition ELISA on plates coated with recombinant human RAGE (2 µg/mL); competitor: biotinylated hybridoma-derived 4E5 (4E5-biotin), streptavidin-HRP, OD 450 nm; the unit comes from the axis 'Log MAbs (M)'
T1 construct: not shown: The carrier of the coated preparation, if it had one
Procedure: The purified chimeric anti-human RAGE monoclonal antibodies were tested for their ability to bind human RAGE in a competition ELISA. […] Equal volumes (50 μL) of each recombinant chimeric anti-human RAGE monoclonal antibodies or hybridoma-derived anti-human RAGE monoclonal antibodies and each corresponding biotinylated hybridoma-derived anti-RAGE mAbs were mixed. 50 μL of this mixture was then added to ELISA plates pre-coated with recombinant human RAGE at 2 μg/mL and incubated for 1.5 hours at room temperature. Wells were washed three times with PBS+0.05% Tween-20. Streptavidin HRP (1 mg/mL) was diluted 1:16000 in PBST+10% Superblock; 50 µL/well was added and the plates incubated for 1 hour at room temperature. Plates were washed 3 times with PBS+0.05% Tween-20. 50 µL of TMB solution (Sigma, St Louis, Mo.) was added to each well and incubated for 10 minutes at room temperature. The reaction was stopped by addition of IN sulphuric acid. Plates were read spectrophotometrically at a wavelength of 450 nm.

[2] = biological target: T2, biotinylated Aβ1-42 globulomer (UniProt P05067 672-713, 1/5 of the Aβ1-42 peptide used was Biotinyl-Amyloid β-Protein (1-42)); test: ALPHA screen: RAGE-Fc titrated on protein A acceptor beads, biotinylated Aβ globulomer on streptavidin donor beads
T2 construct: domain: Amyloid β-Protein (1-42); Oligomer of Aβ1-42; Concentrations are calculated as Aβ1-42 monomer; also called Aβ-globulomer; amyloid Aβ-globulomers

| Binder | EC50 [1] | binding result [2] |
| --- | --- | --- |
| B1 | 66.2 nM |  |
| B2 |  | no binding (tested: about 30 ng/µl) |
